Assay results published in publication PMC7666158 (2020).

Key:
[1] = biological target: T1, JNK1-dc20 (JNK1 with the C-terminal 20 residues truncated) (human, UniProt P45983 1-427); assay: FP
[2] = biological target: T1, JNK1-dc20 (JNK1 with the C-terminal 20 …); assay: FP; EDTA
[3] = biological target: T1, JNK1-dc20 (JNK1 with the C-terminal 20 …); assay: ITC
[4] = biological target: T1, JNK1-dc20 (JNK1 with the C-terminal 20 …); assay: ITC; 2 mM EDTA

T1 sequence (P45983 other isoform, or with tags, fused parts or gaps): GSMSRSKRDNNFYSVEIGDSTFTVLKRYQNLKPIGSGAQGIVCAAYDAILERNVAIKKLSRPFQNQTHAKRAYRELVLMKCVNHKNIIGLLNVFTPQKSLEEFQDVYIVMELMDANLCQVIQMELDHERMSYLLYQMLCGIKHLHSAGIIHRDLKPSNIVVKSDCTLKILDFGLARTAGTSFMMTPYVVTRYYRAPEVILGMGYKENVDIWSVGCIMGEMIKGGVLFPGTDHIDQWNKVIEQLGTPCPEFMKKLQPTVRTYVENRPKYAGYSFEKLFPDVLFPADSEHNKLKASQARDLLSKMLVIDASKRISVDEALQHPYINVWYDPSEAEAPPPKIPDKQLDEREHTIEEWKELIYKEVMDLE

Binder	Kd [1]	Kd [2]	Kd [3]	Kd [4]
MBP-ATF2(19–100) (domain or fragment) MSDDKPFLCTAPGCGQRFTNEDHLAVHKHKHEMTLKFGPARNDSVIVADQTPTPTRFLKNCEEVGLFNELASPFENEFKKAS	3.5 µM	53 µM		
MSDDKPFLCTAPGCGQRFTNEDHLAVHKHKHEMTLKFGPA (domain or fragment) [ATF2(19–58)-His6 (MBP removed, for ITC)]			5.1 µM	48 µM
MSDDKPFLCTAPGCGQRFTNEDHLAVHKHKHEMTLKFGPA (domain or fragment) [ATF2(19–58) as used in the competitive fluorescence polarisation assay]	4.5 µM			
MBP-c-Jun(1–78) (domain or fragment) MTAKMETTFYDDALNASFLPSESGPYGYSNPKILKQSMTLNLADPVGSLKPHLRAKNSDLLTSPDVGLLKLASPELER	3.8 µM	4.9 µM		
MBP-c-Jun(1–78) K35E (domain or fragment) MTAKMETTFYDDALNASFLPSESGPYGYSNPKILEQSMTLNLADPVGSLKPHLRAKNSDLLTSPDVGLLKLASPELER	55 µM			
